According to patent US20070219354A1:

Biological target: APP695-derived polypeptide (SEQ. ID. NO.:28) having the modified sequence NLDV (SEQ. ID. NO.:7) (Homo sapiens (Human)) (UniProt P05067)
Experiment: cell-based or functional assay

Substance: β-secretase of the HEK293T cells used in Example 4 (from UniProt P56817 46-501) (enzyme)
- Aβ production in HEK293T cells (IP/Western, densitometry) (times the level of wild type APP695): > 3
